# According to article PMC3462190, “A Peptidic Unconjugated GRP78/BiP Ligand Modulates the Unfolded Protein Response and Induces Prostate Cancer Cell Death” (PLoS ONE, 2012):
# B1: Bag-1: cochaperone Bag-1, HA-tagged (pcDNA3.1-HA-Bag-1), or endogenous (protein)
# chain: TPLSALGIQDGCRVMLIGKKNSPQEEVELKKLKHLEKSVEKIADQLEELNKELTGIQQGFLPKDLQAE
# modifications: left off: HA, end not stated, kept
# notes: cochaperone Bag-1, HA-tagged (pcDNA3.1-HA-Bag-1), or endogenous
# B2: Bag-1 peptide: internal sequence of 68 amino acids of Bag-1 (Bag1-L 202–269), HA-tagged, expressed from pcDNA3 (peptide)
# chain: B1 chain
# modifications: also: HA tag, end not given here
# Experiments:
# [1] = tested on: ATPase domain of GRP78/BiP; assay: GST pull-down with ATPase domain of GRP78/BiP; format: binding; settings: 10 µg GST-fused ATPase domain, lysate of HEK-293 cells; for the 68 amino acid peptide results not shown
# GRP78/BiP [2] = assay: In vitro ATPase activity assay of GRP78; format: biochemical; settings: GRP78 0.5 µg, GST purified Bag-1 or Bag-1 peptide up to 1.5 µg, 1 h, 37°C
# Procedure: In vitro ATPase activity assay of GRP78. A. ATPase activity was measured with the ATPase assay kit from Innova Bioscience (Cambridge, UK). The reaction mixture contained GRP78 (0.5 µg) increasing amounts of GST purified Bag-1 (continuous line) or Bag-1 peptide (dashed line) up to 1.5 µg. The reaction was carried out for 1 h at 37°C with purified ATP according to the manufacturer’s instructions. Each point represents the mean value of three independent experiments ± SEM. B. The purity of protein preparation used for the assay. Shown are 5 µg of purified GRP78 (StressMarq Biosciences, Victoria, Canada), GST Bag-1 peptide, and GST-Bag-1 used in the assay following SDS PAGE and Coomassie blue staining. (TIF) Click here for additional data file.
# GRP78/BiP [3] = assay: Co-immunoprecipitation with endogenous GRP78/BiP; format: binding
# Procedure: 22Rv.1 cells were used for interaction studies of endogenous Bag-1 and GRP78/BiP, while for the in vivo interaction of the Bag-1 peptide and GRP78/BiP, HEK-293 cells were transfected with a plasmid encoding HA-tagged Bag-1 peptide. Twenty-four hours prior to the experiment, the cells in both cases were washed with phosphate buffered saline (PBS) and treated with 20 mM Dithiobis(succinimidyl propionate) (DSP) in PBS for 30 min at room temperature. The reaction was stopped with 20 mM Tris and the cells were lysed in 50 mM Tris-HCl pH 7.4, 120 mM NaCl, 1 mM EDTA, 0.4% NP40 and 1% protease inhibitor cocktail. Immunoprecipitation of GRP78/BiP was carried out overnight at 4°C with anti-GRP78 antibody coupled to sepharose A beads (Abcam, ab21685). Binding of endogenous Bag-1 or of HA-peptide was determined by Western blotting using a Bag-1 or an HA specific antibody.
# Figure 1 Bag-1 proteins interact with the molecular chaperone GRP78/BiP. A. The Bag-1 family of proteins binds GRP78/BiP. GST pull-down assay was performed incubating 5 µg each of GST-fused Bag-1 proteins with 400 µg of 22Rv.1 cell lysate. […]
# Figure 2 Identification of Bag-1 peptide interfering with the action of GRP78/BiP. […] Western blot analysis with an HA antibody to detected the Bag-1 mutants is shown. […] Thereafter luciferase activity was measured. […]
# LNCaP xenograft tumor = assay: LNCaP tumor xenograft study; format: in vivo, athymic nude mice; settings: mean and SD of 4–10 tumors
# Procedure: All animal experiments were performed according to European and German statutory regulations. For generation of xenograft models 5×10^6 LNCaP cells were resuspended in a solution of 50% Matrigel® (BD Bioscience, Heidelberg, Germany) in PBS or 5×10^6 22Rv.1 cells in 100 µl of PBS were subcutaneously injected into both flanks of 6–8 week-old athymic nude mice. Tumor size was measured with a caliper every week. Tumors derived from the […], […] Tumor size was assessed measuring three perpendicular diameters according to the formula: V = (1/6) [π] (d1d2d3), where π is a mathematic constant and d1, d2 and d3 represent the three spatial dimensions (width, depth and height). Mice were euthanized by cervical dislocation and the tumors removed for further analysis.
Molecule,interaction with ATPase domain of GRP78/BiP [1],ATPase activity of GRP78/BiP (GRP78/BiP [2]),"in vivo interaction with GRP78/BiP (GRP78/BiP [3]; 22Rv.1 cells, endogenous Bag-1)","Tumor weight, clone P12 (LNCaP xenograft tumor; LNCaP clone P12, termination 8 weeks, vector V82 0.65±0.29 g (8 weeks)) [g]","Tumor weight, clone P35 (LNCaP xenograft tumor; LNCaP clone P35, termination 6 weeks, vector V69 0.22±0.03 g (6 weeks)) [g]","in vivo interaction with endogenous GRP78/BiP (GRP78/BiP [3]; HEK-293 cells expressing HA-tagged Bag-1 peptide, DSP cross-linked)"
B1,interacted not only with the full length GRP78/BiP but also with its ATPase and SBD,increased this enzymatic activity,bind to GRP78/BiP in 22Rv.1 cells,–,–,–
B2,interacted with both the SBD and ATPase binding domains of GRP78,did not have any effect on the ATPase activity of GRP78/BiP,–,0.04 ± 0.03,0.05 ± 0.01,interacted with endogenous GRP78/BiP protein
